Key:
[1] = molecular target: T1, MD2 (Homo sapiens, UniProt Q9Y6Y9); test: Solid phase binding assay, hMD2 to immobilized TREML1 stalk; settings: stalk coated 5 ug/ml; anti-His tag antibody-HRP detection; FIG. 3A
T1 sequence (Q9Y6Y9 19-160): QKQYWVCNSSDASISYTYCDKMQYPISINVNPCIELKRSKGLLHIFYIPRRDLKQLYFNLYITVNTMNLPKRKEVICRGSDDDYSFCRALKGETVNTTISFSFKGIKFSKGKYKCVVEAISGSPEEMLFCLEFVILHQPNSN
Procedure: (§1) For TREML1 or mTREML1 stalk binding to human or mouse MD2 protein, TREML1 stalk or mTREML1 stalk (5 ug/ml in PBS) was coated separately on a 96-well plate. Recombinant hTLR4, hMD2, hCD14, or mMD2 was each serially diluted and added to the plates. Anti-His tag antibody-HRP was used as a detection antibody to detect the protein binding.

[2] = molecular target: TLR4 (Homo sapiens, UniProt O00206); test: Solid phase binding assay, hTLR4 to immobilized TREML1 stalk; settings: stalk coated 5 ug/ml; FIGS. 3A and 3B
Procedure: as §1

[3] = molecular target: T2, CD14 (Homo sapiens, UniProt P08571); test: Solid phase binding assay, hCD14 to immobilized TREML1 stalk; settings: stalk coated 5 ug/ml; FIGS. 3A and 3B
T2 sequence (P08571 20-345): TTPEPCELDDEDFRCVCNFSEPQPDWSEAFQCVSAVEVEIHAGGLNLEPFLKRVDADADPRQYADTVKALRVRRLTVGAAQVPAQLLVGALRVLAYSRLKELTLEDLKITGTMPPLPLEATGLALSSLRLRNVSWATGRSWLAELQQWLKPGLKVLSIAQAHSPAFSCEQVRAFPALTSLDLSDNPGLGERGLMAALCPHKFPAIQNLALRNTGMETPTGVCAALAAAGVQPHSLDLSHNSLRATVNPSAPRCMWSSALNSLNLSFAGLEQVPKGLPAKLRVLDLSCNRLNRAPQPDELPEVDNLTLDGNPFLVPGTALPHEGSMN
Procedure: as §1

[4] = tested on: Human peripheral blood mononuclear cells (PBMCs); test: TLR agonist-induced TNF-α secretion in human PBMCs with or without TREML1 ECD; assay type: cell-based; settings: human PBMCs, 18 hr; FIG. 7A
Procedure: Human peripheral blood samples from healthy volunteer donors were collected by venipuncture bled into ACD vacutainer tubes. Human peripheral blood mononuclear cells (PBMCs), which were separated from whole blood using Ficoll-Paque Plus (GE17-1440-03) according to the manufacturer's instructions. Human peripheral blood mononuclear cells (PBMCs) were pretreated with or without […]1 (10 ug/ml, 5 ug/ml and 1 ug/ml) and incubated for 30 min at 37° C. with 5% CO2. After treatments, cells were stimulated with TLR agonist, including R848 (InvivoGen #tlrl-r848) and ODN2395 (InvivoGen #tlrl-2395), and incubated at 37° C. with 5% CO2 for 18 hr. Supernatants of cell culture medium were collected for TNF-α measurements. Cell supernatants and plasma samples were harvested and stored at -80° C. Human TNFα concentrations were detected using TNF-α DuoSet ELISA kit (R&D #DY210) according to manufacturer's instructions. Signals were developed using 3,3',5,5'-tetramethylbenzidine and the absorbance of 450 nm was detected with a microplate reader.

[5] = tested on: BMDCs; test: Mouse bone marrow derived dendritic cell maturation (flow cytometry); assay type: cell-based; settings: FIG. 8
Procedure: Femurs and tibiae were harvested from female C57BL/6 mice and extra muscle tissues were removed. Bones were disinfected in 70% ethanol, then rinsed with RPMI-1640 medium, and both ends were cut to flush out the bone marrow with RPMI-1640 medium using 26 G needle syringes. To disperse cell clumps, bone marrow suspension was pipetted in-and-out several times and washed twice with RPMI-1640 medium by centrifugation. […] At day 0, after cell counting, the leukocytes were seeded at a concentration of 2×10^6 cells/10 ml R10 medium containing 200 U/ml rmGM-CSF in sterile […] Petri dish and incubated at 37° C. with 5% CO2. At day 3, another 10 ml of R10 medium containing 200 U/ml rmGM-CSF was added. At days 6, one half of the supernatant was taken out and centrifuged to collect cell pellet, which was resuspend in original plate with 10 ml of R10 medium containing 200 U/ml GM-CSF. At day 8, non-adherent cells were collected by gentle pipetting and centrifuged at 300 g for 5 min. To obtain purer dendritic cells, the population of macrophages (F4/80^high) was removed with Anti-F4/80 MicroBeads UltraPure (130-110-443, Miltenyi Biotec, Bergisch Gladbach, Germany) following the manufacturer's instructions. Briefly, cell pellet was resuspended and mixed well in MACS buffer with Anti-F4/80 MicroBeads UltraPure. This mixture was incubated for 15 min in the dark in 4° C. After washing cells with MACS buffer, cells were resuspended in MACS buffer, filtered with 30 μm nylon mesh, and added to the MACS buffer rinsed column to separate F4/80^+ cells. Unlabeled cells were collected and washed with R10 medium. To freeze the cells, cell pellet was counted and resuspended at a concentration 1×10^7 cell in 2 ml CELLBANKER2 (#11891, ZENOAQ) per cryopreservation vial and stored at −80 degree Celsius.
BMDCs were thawed for the DC maturation experiments. These cells were seeded at 1×10^6 cells/2 ml in R10 medium containing 200 U/ml rmGM-CSF in wells of a 6-well tissue culture dish and cultured to recover the cell viability at 37° C. with 5% CO2. After 6 hr, BMDCs were treated with various fragments of mTREML1 protein and cultured in 37° C. with 5% CO2. On the next day, resuspended cells were collected and analyzed by flow cytometry.
Cells were centrifuged at 1800 rpm for 3 min in PBS containing 1% FBS and 0.1% sodium azide (PBSBA), and then divided at a concentration of 1×10^5 cells/100 ul PBSBA in flow tube. Before staining the surface marker of DC, cells were treated with mouse Fc blocker to avoid antibody non-specific binding at room temperature for 30 min. […] After PBSBA washing, samples were analyzed using the CytoFlex flow cytometer with the CytExpert software.

TLR4, sequence (O00206 24-839): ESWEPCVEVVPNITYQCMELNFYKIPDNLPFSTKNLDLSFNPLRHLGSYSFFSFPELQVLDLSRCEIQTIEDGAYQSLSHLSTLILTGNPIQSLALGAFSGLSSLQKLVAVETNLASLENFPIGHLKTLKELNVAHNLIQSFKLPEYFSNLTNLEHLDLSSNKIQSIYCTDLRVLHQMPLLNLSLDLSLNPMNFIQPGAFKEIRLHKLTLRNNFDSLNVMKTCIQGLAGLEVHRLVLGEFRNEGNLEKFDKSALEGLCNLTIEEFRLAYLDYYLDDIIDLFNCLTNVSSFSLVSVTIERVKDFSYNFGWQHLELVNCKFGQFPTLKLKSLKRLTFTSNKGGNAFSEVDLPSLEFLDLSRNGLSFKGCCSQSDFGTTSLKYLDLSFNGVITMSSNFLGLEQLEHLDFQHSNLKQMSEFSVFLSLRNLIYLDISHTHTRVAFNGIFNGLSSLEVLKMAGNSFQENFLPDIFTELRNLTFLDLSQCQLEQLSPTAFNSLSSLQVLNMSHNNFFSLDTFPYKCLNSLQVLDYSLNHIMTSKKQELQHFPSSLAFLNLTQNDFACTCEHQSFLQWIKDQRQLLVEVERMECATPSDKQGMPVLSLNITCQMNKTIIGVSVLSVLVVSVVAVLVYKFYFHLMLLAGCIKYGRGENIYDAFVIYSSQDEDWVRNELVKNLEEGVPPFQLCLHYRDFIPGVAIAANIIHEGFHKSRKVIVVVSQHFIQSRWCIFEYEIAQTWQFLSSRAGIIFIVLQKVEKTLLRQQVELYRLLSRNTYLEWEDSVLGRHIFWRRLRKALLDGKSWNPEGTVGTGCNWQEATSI

Question: Which results are given for “TREML1 stalk: human TREML1 stalk polypeptide, SEQ ID NO:3, ILPPEEEEETHKIGSLAENAFSDPAGSANPLEPSQDEKSIP, chemically synthesized (listed as Homo sapiens)”?
Answer: MD2 binding to immobilized TREML1 stalk [1]: binds with TREML1 stalk in a concentration-dependent manner; TLR4 binding to immobilized TREML1 stalk [2]: do not bind TREML1 stalk; CD14 binding to immobilized TREML1 stalk [3]: do not bind TREML1 stalk

Question: CCOCc1nc2c(N)nc3ccccc3c2n1CC(C)(C)O [R848, 4-amino-2-(ethoxymethyl)-α,α-dimethyl-1H-imidazo[4,5-c]quinoline-1-ethanol, reference compound] was tested. Which “TNF-α secretion induced by TLR agonist alone” value [4] did it give?
Answer: Its value is “can induce TNF-α secretion”.

B1: mTREML1 ECD: mouse TREML1 extracellular domain, SEQ ID NO:2; recombinant, E. coli, polyhistidine tag at the N-terminus (protein, listed as Mus musculus)
chain: DSHPEVLQAPVGSSILVQCHYRLQDVRALKVWCQFLQEGCHPLVTSAVDRRAPGNGRIFLTDLGGGLLQVEMVTLQEEDTGEYGCVVEGAAGPQTLHRVSLLVLPPVPGPREGEEAEDEKETYRIGTGSLLEDPSLDPSASAGPHEFRRRENSIP
modifications: N-terminal polyhistidine tag
notes: recombinant, E. coli, polyhistidine tag at the N-terminus
Question: Which results are given for B1?
Answer: dendritic cell maturation effect compared with TNF-α [5]: significantly stronger than those of TNF-α; dendritic cell maturation (DC maturation markers CD40, CD86, CD80, MHC II) ([5]; analyzed the next day): can trigger dendritic cell maturation
